First the molecules themselves.
B1: FADS1 (parent)
chain: LNFQIEHHLFPTMPRHNYHKVAPL
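Note: lentivirally expressed fusions sorted by FACS into six bins by GFP to DsRed ratio, PSI derived from sequencing read proportions per bin multiplied by bin number.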

In this data set the parent is B1. Nature of the data set: protein stability index of a GFP-peptide fusion (GPS, HEK-293T) (PSI 1-6); higher = more stable. As to conditions: c terminus: a fixed tail appended.
Regarding LNFQIEHHLFPTMPRHNYDKVAPL [H19D], the protein stability index came out at 3.43.
With LNFQIEHHLFPTMPRHNYYKVAPL [H19Y] the figure was 2.58; with LNFQIEHHLFPTMPRHNYAKVAPL [H19A], 2.85.
LNFQIEHHLFPTMPRHNYFKVAPL [H19F]: the protein stability index is 1.81.
LNFQIEHHLFPTMPRHNYQKVAPL [H19Q]: the protein stability index is 2.
On to LNFQIEHHLFPTMPRHNYWKVAPL [H19W], for which the protein stability index was found to be 3.52.
With LNFQIEHHLFPTMPRHNYVKVAPL [H19V] the figure was 2.8; with LNFQIEHHLFPTMPRHNYEKVAPL [H19E], 2.25.
The figure for LNFQIEHHLFPTMPRHNYSKVAPL [H19S] is 2.35; for LNFQIEHHLFPTMPRHNYGKVAPL [H19G] it is 3.11.
With LNFQIEHHLFPTMPRHNYKKVAPL [H19K] the figure was 2.3.
LNFQIEHHLFPTMPRHNYPKVAPL [H19P]: the protein stability index amounted to 3.38.
Regarding LNFQIEHHLFPTMPRHNYMKVAPL [H19M], the protein stability index was 3.8.
Regarding LNFQIEHHLFPTMPRHNYIKVAPL [H19I], the protein stability index stood at 3.24.
For the variant LNFQIEHHLFPTMPRHNYRKVAPL [H19R], the protein stability index stood at 1.88.
As to LNFQIEHHLFPTMPRHNYLKVAPL [H19L], the protein stability index was 1.54.
As to LNFQIEHHLFPTMPRHNYNKVAPL [H19N], the protein stability index is 2.27.
With LNFQIEHHLFPTMPRTNYHKVAPL [H16T], the protein stability index came to 1.77.
Regarding LNFQIEHHLFPTMPRRNYHKVAPL [H16R], the protein stability index came to 2.13.
For LNFQIEHHLFPTMPRPNYHKVAPL [H16P], the protein stability index worked out at 2.19.
With LNFQIEHHLFPTMPRVNYHKVAPL [H16V] the figure was 2.36; with LNFQIEHHLFPTMPRNNYHKVAPL [H16N], 2.2; with LNFQIEHHLFPTMPRYNYHKVAPL [H16Y], 3.52.
With LNFQIEHHLFPTMPRFNYHKVAPL [H16F] the figure was 2.12; with LNFQIEHHLFPTMPRSNYHKVAPL [H16S], 1.28; with LNFQIEHHLFPTMPRDNYHKVAPL [H16D], 3.61.
The figure for LNFQIEHHLFPTMPRENYHKVAPL [H16E] is 2.52.
Take LNFQIEHHLFPTMPRINYHKVAPL [H16I]: the protein stability index stood at 2.46.
Consider LNFQIEHHLFPTMPRLNYHKVAPL [H16L], for which the protein stability index turned out to be 1.96.
With LNFQIEHHLFPTMPRGNYHKVAPL [H16G] the figure was 1.24; with LNFQIEHHLFPTMPRKNYHKVAPL [H16K], 1.22.
The figure for LNFQIEHHLFPTMPRMNYHKVAPL [H16M] is 4.22; for LNFQIEHHLFPTMPRCNYHKVAPL [H16C] it is 3.19.
As to LNFQIEHHLFPTMPRHNYHTVAPL [K20T], the protein stability index was determined as 1.79.
The figure for LNFQIEHHLFPTMPRHNYHIVAPL [K20I] is 2.65; for LNFQIEHHLFPTMPRHNYHNVAPL [K20N] it is 2.58.
The figure for LNFQIEHHLFPTMPRHNYHMVAPL [K20M] is 2.3; for LNFQIEHHLFPTMPRHNYHGVAPL [K20G] it is 1.99.
On to LNFQIEHHLFPTMPRHNYHAVAPL [K20A], for which the protein stability index is 1.9.
On to LNFQIEHHLFPTMPRHNYHPVAPL [K20P], for which the protein stability index came to 2.71.
Consider LNFQIEHHLFPTMPRHNYHRVAPL [K20R], for which the protein stability index was 2.76.
With LNFQIEHHLFPTMPRHNYHLVAPL [K20L], the protein stability index was found to be 3.03.
The figure for LNFQIEHHLFPTMPRHNYHEVAPL [K20E] is 1.94.
With LNFQIEHHLFPTMPRHNYHCVAPL [K20C] the figure was 2.2.
With LNFQIEHHLFPTMPRHNYHHVAPL [K20H] the figure was 1.46; with LNFQIEHHLFPTMPRHNYHVVAPL [K20V], 1.2.
As to LNFQIEHHLFPTMPRHNYHYVAPL [K20Y], the protein stability index was found to be 3.23.
Regarding LNFQIEHHLFPTMPRHNYHDVAPL [K20D], the protein stability index was 2.29.
With LNFQIEHHLFPTMPRHNYHQVAPL [K20Q] the figure was 3.36; with LNFQIEHHLFPTMPYHNYHKVAPL [R15Y], 3.31; with LNFQIEHHLFPTMPQHNYHKVAPL [R15Q], 1.33.
As for LNFQIEHHLFPTMPDHNYHKVAPL [R15D], the protein stability index is 1.98.
For LNFQIEHHLFPTMPGHNYHKVAPL [R15G], the protein stability index worked out at 3.15.
With LNFQIEHHLFPTMPFHNYHKVAPL [R15F] the figure was 2.68; with LNFQIEHHLFPTMPAHNYHKVAPL [R15A], 3.26.
In the case of LNFQIEHHLFPTMPNHNYHKVAPL [R15N], the protein stability index turned out to be 2.43.
The figure for LNFQIEHHLFPTMPKHNYHKVAPL [R15K] is 2.35.
As to LNFQIEHHLFPTMPSHNYHKVAPL [R15S], the protein stability index stood at 2.95.
The figure for LNFQIEHHLFPTMPCHNYHKVAPL [R15C] is 3.14; for LNFQIEHHLFPTMPIHNYHKVAPL [R15I] it is 2.88; for LNFQIEHHLFPTMPTHNYHKVAPL [R15T] it is 2.55.
With LNFQIEHHLFPTMPWHNYHKVAPL [R15W] the figure was 2.99; with LNFQIEHHLFPTMPVHNYHKVAPL [R15V], 2.01.
As to LNFQIEHHLFPTMPLHNYHKVAPL [R15L], the protein stability index came out at 2.42.
With LNFQIEHHLFPTMPHHNYHKVAPL [R15H] the figure was 1.84; with LNFQIEHHLFPTMPEHNYHKVAPL [R15E], 1.81.
For the variant LNFQIEHHLFPTMPRHRYHKVAPL [N17R], the protein stability index was 2.48.
Take LNFQIEHHLFPTMPRHPYHKVAPL [N17P]: the protein stability index was 2.71.
With LNFQIEHHLFPTMPRHIYHKVAPL [N17I] the figure was 1.5.
The figure for LNFQIEHHLFPTMPRHKYHKVAPL [N17K] is 1.27; for LNFQIEHHLFPTMPRHAYHKVAPL [N17A] it is 1.98.
The figure for LNFQIEHHLFPTMPRHSYHKVAPL [N17S] is 2.02.
Regarding LNFQIEHHLFPTMPRHYYHKVAPL [N17Y], the protein stability index is 2.39.
The figure for LNFQIEHHLFPTMPRHCYHKVAPL [N17C] is 3.44; for LNFQIEHHLFPTMPRHFYHKVAPL [N17F] it is 2.83; for LNFQIEHHLFPTMPRHMYHKVAPL [N17M] it is 1.58.
Turning to LNFQIEHHLFPTMPRHWYHKVAPL [N17W], the protein stability index came out at 2.84.
LNFQIEHHLFPTMPRHLYHKVAPL [N17L]: the protein stability index was 3.08.
Regarding LNFQIEHHLFPTMPRHHYHKVAPL [N17H], the protein stability index stood at 1.81.
The figure for LNFQIEHHLFPTMPRHVYHKVAPL [N17V] is 1.43; for LNFQIEHHLFPTMPRHDYHKVAPL [N17D] it is 2.28.
The figure for LNFQIEHHLFPTMPRHTYHKVAPL [N17T] is 2.19; for LNFQIEHHLFPTMPRHGYHKVAPL [N17G] it is 1.27.
With LNFQIEHHLFPTMPRHEYHKVAPL [N17E] the figure was 2.35; with LNFQIEHHLFPTMPRHQYHKVAPL [N17Q], 2.33.
With LNFQIEHHLFPTMPRHNYHKAAPL [V21A], the protein stability index amounted to 1.32.
In the case of LNFQIEHHLFPTMPRHNYHKHAPL [V21H], the protein stability index is 1.92.
With LNFQIEHHLFPTMPRHNYHKFAPL [V21F] the figure was 2.85; with LNFQIEHHLFPTMPRHNYHKDAPL [V21D], 2.41.
The figure for LNFQIEHHLFPTMPRHNYHKKAPL [V21K] is 1.83.
With LNFQIEHHLFPTMPRHNYHKEAPL [V21E] the figure was 2.32; with LNFQIEHHLFPTMPRHNYHKCAPL [V21C], 2.38.
As for LNFQIEHHLFPTMPRHNYHKIAPL [V21I], the protein stability index was found to be 3.07.
The figure for LNFQIEHHLFPTMPRHNYHKGAPL [V21G] is 2.38.

Source of the values: the supplement of paper PMC10567573.
